Measured values as given in patent US20060134087A1, “ITI-D1 Kunitz domain mutants as hNE inhibitors” (Dyax Corp., priority 1988, published 2006).
“Also recorded” adds a separate entry of the source. Read-outs that look alike come from different tables or passages of the source.

Tests used:
hNE [1] = molecular target: T1, hNE (Homo sapiens, UniProt P08246); assay: Kinetic on-rate of inhibitors reacting with hNE (progressive inhibition); assay type: biochemical; conditions: for kon: [hNE] = 8.47 × 10^−10 molar; for koff: calculated from koff = KD × kon
T1 sequence (P08246 30-267): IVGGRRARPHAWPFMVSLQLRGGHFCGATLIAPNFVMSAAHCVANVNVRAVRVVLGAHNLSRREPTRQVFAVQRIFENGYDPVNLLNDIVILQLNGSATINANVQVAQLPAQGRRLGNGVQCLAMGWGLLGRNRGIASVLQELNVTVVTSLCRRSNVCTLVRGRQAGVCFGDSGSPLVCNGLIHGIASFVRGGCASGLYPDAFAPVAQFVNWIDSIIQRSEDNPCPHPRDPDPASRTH
Description: The kinetic on-rates for the inhibitors reacting with hNE (kon) were determined from measurements of progressive inhibition of substrate hydrolytic activity by hNE following addition of inhibitor. For these experiments, a known concentration of inhibitor was added to a solution of hNE (0.847 nM) and substrate (25 μM) in 2 ml of reaction buffer in a plastic fluorescence cuvette. The change in fluorescence was recorded continuously following addition of the inhibitor. […] The enzymatic rate at selected times following addition of the inhibitor was determined from the slope of the tangent to the fluorescence time course at that time.
The kinetic constant kon for EPI-HNE-2 reacting with hNE was determined as follows. EPI-HNE-2 at 1.3 nM was added to buffer containing 0.867 nM hNE (I:E=1.5:1) at time 0. Measured percent residual activity was recorded as a function of time after addition of inhibitor. A least-squares fit program was used to obtain the value of kon=4.0×10^6 M^−1s^−1.
The kinetic off rate, koff, is calculated from the measured values of Ki and kon as: […] The values from such measurements are included in Table 30. The EPI-HNE proteins are small, high affinity, fast acting inhibitors of hNE. B. Specificity.

hNE [2] = molecular target: T1, hNE; assay: Temperature stability, residual inhibitory activity for hNE; assay type: physicochemical; design: Residual hNE Inhibitory Activity: unit not given here; conditions: for Residual hNE Inhibitory Activity: 18 hours, pH 7.0, 1 μM protein; for temperature below which full inhibitory activity is maintained: thirty minutes, 1 μM, phosphate buffer pH=7
Description: The stability of EPI-HNE proteins to temperatures in the range 0° C. to 95° C. was assessed by incubating the inhibitors for thirty minutes at various temperatures and determining residual inhibitory activity for hNE. In these experiments, protein concentrations were 1 μM in phosphate buffer at pH=7. As is shown in Table 40, the four inhibitors are quite temperature stable.
Proteins were incubated at the stated temperature for 18 hours in buffer at pH 7.0. In all cases protein concentrations were 1 μM. At the end of the incubation period, aliquots of the reactions were diluted and residual hNE-inhibition activity determined.

hNE [3] = molecular target: T1, hNE; assay: pH stability, residual hNE inhibitory activity; assay type: physicochemical; conditions: 37° C., 18 hours; for pH stability: pH 1 to pH 10, 1 μM; for Percent Residual hNE Inhibitory Activity: 1 μM protein
Description: The stability of the proteins to exposure to pH conditions in the range of pH 1 to pH 10 was assessed by maintaining the inhibitors in buffers of defined pH at 37° C. for 18 hours and determining the residual hNE inhibitory activity in the standard hNE-inhibition assay. Proteins were incubated at a concentration of 1 μM. The buffers shown in Table 4 were formulated as described (STOL90) and used in the pH ranges indicated: […]
Proteins were incubated at 37° C. for 18 hours in buffers of defined pH (see text). In all cases protein concentrations were 1 μM. At the end of the incubation period, aliquots of the reactions were diluted and residual hNE-inhibition activity determined.

hNE [4] = molecular target: T1, hNE; assay: Resistance to oxidative inactivation by Chloramine-T, residual hNE-inhibition activity; assay type: physicochemical; conditions: for Percent Residual hNE-Inhibitory Activity: 20 minutes at RT
Description: At the end of the incubation period, the oxidation reactions were quenched by adding methionine to a final concentration of 4 mM. After a further 10 minute incubation, the quenched reactions were diluted and assayed for residual inhibitor activity in our standard hNE-inhibition assay.
Inhibitors were incubated in the presence of Chloramine-T at the molar ratios indicated for 20 minutes at RT. Oxidation reactions were quenched by adding methionine to a final concentration of 4 mM. Residual hNE-inhibition activity remaining in the quenched reactions is shown as a percentage of the activity observed with no added oxidant.

[5] = molecular target: T2, Chymotrypsin (bovine pancreas) (Bos taurus, UniProt P00766); conditions: BPTI P1 derivatives; read-out: Dissociation constant (symbol); cited from earlier work
T2 construct: host or cells: bovine pancreas

[6] = molecular target: T3, Trypsin (bovine pancreas) (Bos taurus, UniProt P00760); conditions: BPTI P1 derivatives; read-out: Dissociation constant (symbol); cited from earlier work
T3 construct: host or cells: bovine pancreas
T3 sequence (P00760 24-246): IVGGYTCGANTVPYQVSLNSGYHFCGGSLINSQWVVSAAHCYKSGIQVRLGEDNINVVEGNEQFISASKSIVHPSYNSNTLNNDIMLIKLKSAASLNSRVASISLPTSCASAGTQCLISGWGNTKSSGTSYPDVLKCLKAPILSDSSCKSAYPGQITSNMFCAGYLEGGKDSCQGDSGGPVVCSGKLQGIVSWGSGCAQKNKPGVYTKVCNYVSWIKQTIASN

[7] = molecular target: T4, Elastase (human leukocytes) (Homo sapiens, UniProt P08246); conditions: BPTI P1 derivatives; read-out: Dissociation constant; cited from earlier work
T4 construct: host or cells: human leukocytes
T4 sequence (P08246 30-267): T1 sequence (P08246 30-267)

[8] = molecular target: T5, Elastase (porcine pancreas) (Sus scrofa, UniProt P00772); conditions: BPTI P1 derivatives, cited from earlier work
T5 construct: host or cells: porcine pancreas
T5 sequence (P00772 27-266): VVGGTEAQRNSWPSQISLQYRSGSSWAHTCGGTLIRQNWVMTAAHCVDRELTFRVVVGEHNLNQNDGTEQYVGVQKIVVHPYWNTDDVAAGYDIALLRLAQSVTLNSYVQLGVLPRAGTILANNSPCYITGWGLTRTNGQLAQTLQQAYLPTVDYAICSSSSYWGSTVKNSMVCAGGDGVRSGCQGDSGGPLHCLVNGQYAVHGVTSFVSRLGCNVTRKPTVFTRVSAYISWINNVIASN

hCG = molecular target: T6, hCG (Homo sapiens, UniProt P08311); conditions: cited from earlier work
T6 sequence (P08311 21-255): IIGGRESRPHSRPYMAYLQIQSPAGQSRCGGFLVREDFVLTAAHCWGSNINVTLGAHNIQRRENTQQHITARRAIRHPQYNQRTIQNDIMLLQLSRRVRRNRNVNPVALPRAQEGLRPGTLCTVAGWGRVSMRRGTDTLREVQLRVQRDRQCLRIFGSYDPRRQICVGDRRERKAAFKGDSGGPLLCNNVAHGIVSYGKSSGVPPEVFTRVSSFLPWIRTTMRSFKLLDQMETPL

[9] = read-out: Dissociation constant

Substance	kon (hNE [1])	koff (hNE [1])	Residual hNE Inhibitory Activity (hNE [2]; Temperature 0 ° C.)	Residual hNE Inhibitory Activity (hNE [2]; Temperature 23 ° C.)	Residual hNE Inhibitory Activity (hNE [2]; Temperature 37 ° C.)	Residual hNE Inhibitory Activity (hNE [2]; Temperature 55 ° C.)	Residual hNE Inhibitory Activity (hNE [2]; Temperature 85 ° C.)	Residual hNE Inhibitory Activity (hNE [2]; Temperature 95 ° C.)	temperature below which full inhibitory activity is maintained (hNE [2])	pH stability (hNE [3])	Percent Residual hNE Inhibitory Activity (hNE [3]; Incubation pH 1.0)	Percent Residual hNE Inhibitory Activity (hNE [3]; Incubation pH 2.0)	Percent Residual hNE Inhibitory Activity (hNE [3]; Incubation pH 3.0)	Percent Residual hNE Inhibitory Activity (hNE [3]; Incubation pH 4.0)	Percent Residual hNE Inhibitory Activity (hNE [3]; Incubation pH 6.0)	Percent Residual hNE Inhibitory Activity (hNE [3]; Incubation pH 7.0)	Percent Residual hNE Inhibitory Activity (hNE [3]; Incubation pH 8.0)	Percent Residual hNE Inhibitory Activity (hNE [3]; Incubation pH 9.4)	Percent Residual hNE Inhibitory Activity (hNE [3]; Incubation pH 10.0)	Percent Residual hNE-Inhibitory Activity (hNE [4]; Molar Ratio CHL-T:Inhibitor 0)	other results
EPI-HNE-4: EPI-HNE-3 with substitution A3E; SEQ ID NO 027 (EACNLPIVRGPCIAFFPRWAFDAVKGKCVLFPYGGCQGNGNKFYSEKECREYCGVP; Epi-HNE-4)	10.6 10^6/M/s	49. 10^−6/s	100	103	98	98	63	48	below 65 °C	stable when incubated at low pH, but showed some loss of activity at high pH; also recorded: retains almost full activity to pH 8.5	98%	100%	96%	94%	99%	93%	83%	40%	34%	100%	Residual hNE Inhibitory Activity (hNE [2]; Temperature 69 ° C.): 82; Percent Residual hNE Inhibitory Activity (hNE [3]; Incubation pH 5.5): 109%; Percent Residual hNE Inhibitory Activity (hNE [3]; Incubation pH 6.5): 100%; Percent Residual hNE Inhibitory Activity (hNE [3]; Incubation pH 7.5): 109%; Percent Residual hNE Inhibitory Activity (hNE [3]; Incubation pH 8.5): 86%; Percent Residual hNE-Inhibitory Activity (hNE [4]; Molar Ratio CHL-T:Inhibitor 1.0): 100%; Percent Residual hNE-Inhibitory Activity (hNE [4]; Molar Ratio CHL-T:Inhibitor 3.0): 100%; Percent Residual hNE-Inhibitory Activity (hNE [4]; Molar Ratio CHL-T:Inhibitor 5.0): 100%; Percent Residual hNE-Inhibitory Activity (hNE [4]; Molar Ratio CHL-T:Inhibitor 10.): 104%; Percent Residual hNE-Inhibitory Activity (hNE [4]; Molar Ratio CHL-T:Inhibitor 30.): 100%; Percent Residual hNE-Inhibitory Activity (hNE [4]; Molar Ratio CHL-T:Inhibitor 50.): 100%; Percent Residual hNE-Inhibitory Activity (hNE [4]; Molar Ratio CHL-T:Inhibitor .50): 100%; hNE-inhibition activity after exposure to Chloramine-T (hNE [4]; all molar ratios tested (up to 50:1 for EPI-HNE-3 and EPI-HNE-4)): retain essentially complete hNE-inhibition activity
EPI-HNE-1: BPTI-derived Kunitz domain, SEQ ID NO 007; K15I, R17F, I18F, I19P, R39M, A40G, K41N, R42G	3.7 10^6/M/s	7.4 10^−6/s	97	100	100	99	106	64	below 90 °C	stable at all pH values tested	102%	100%	100%	98%	100%	93%	96%	100%	98%	100%	Residual hNE Inhibitory Activity (hNE [2]; Temperature 45 ° C.): 103; Residual hNE Inhibitory Activity (hNE [2]; Temperature 65 ° C.): 94; Residual hNE Inhibitory Activity (hNE [2]; Temperature 75 ° C.): 100; Percent Residual hNE Inhibitory Activity (hNE [3]; Incubation pH 2.6): 101%; Percent Residual hNE Inhibitory Activity (hNE [3]; Incubation pH 5.0): 100%; Percent Residual hNE-Inhibitory Activity (hNE [4]; Molar Ratio CHL-T:Inhibitor 1.4): 98%; Percent Residual hNE-Inhibitory Activity (hNE [4]; Molar Ratio CHL-T:Inhibitor 1.9): 102%; Percent Residual hNE-Inhibitory Activity (hNE [4]; Molar Ratio CHL-T:Inhibitor 3.8): 94%; Percent Residual hNE-Inhibitory Activity (hNE [4]; Molar Ratio CHL-T:Inhibitor 9.5): 95%; Percent Residual hNE-Inhibitory Activity (hNE [4]; Molar Ratio CHL-T:Inhibitor 19.): 92%; Percent Residual hNE-Inhibitory Activity (hNE [4]; Molar Ratio CHL-T:Inhibitor .48): 102%; Percent Residual hNE-Inhibitory Activity (hNE [4]; Molar Ratio CHL-T:Inhibitor .95): 100%
valine	–	–	–	–	–	–	–	–	–	–	–	–	–	–	–	–	–	–	–	–	Kd [5]: > 3500 nM; Kd [6]: > 3500 nM; Kd [7]: 0.11 nM; Kd [8, 9]: 57 nM
alanine	–	–	–	–	–	–	–	–	–	–	–	–	–	–	–	–	–	–	–	–	Kd [5]: > 3500 nM; Kd [6]: ≥ 3500 nM; Kd [7]: 2.5 nM; Kd [8, 9]: 28 nM
Bovine pancreatic trypsin inhibitor [BPTI]	–	–	–	–	–	–	–	–	–	–	–	–	–	–	–	–	–	–	–	–	inhibition of Cathepsin-G (hCG; SWAI88, ODOM90): lacks; binding of hCG (hCG): does not significantly bind hCG; Kd ([8]; read-out: Dissociation constant (symbol)): > 3500 nM
